Source: paper PMC4970993, “Kinetic studies on recombinant UDP-glucose: sterol 3-O-β-glycosyltransferase from Micromonospora rhodorangea and its bioconversion potential” (AMB Express, 2016)

Experiments:
purified protein = substrate: CC(C)CCC[C@@H](C)[C@H]1CC[C@H]2[C@@H]3CC=C4C[C@@H](O)CC[C@]4(C)[C@H]3CC[C@]12C; assay: purified protein; settings: glycosyl acceptor, 0.8 mM UDP-Glc, 50 mM Tris-HCl pH 7.4 (pH 7.5), 5 mM MgCl2, 30 °C, apparent
[1] = substrate: C/C=C(\CC[C@@H](C)[C@H]1CC[C@H]2[C@@H]3CC=C4C[C@@H](O)CC[C@]4(C)[C@H]3CC[C@]12C)C(C)C; assay: HPLC-MS/MS of sterol glucoside formation, Michaelis-Menten fit; type: biochemical, Micromonospora echinospora; settings: glycosyl acceptor, 0.8 mM UDP-Glc, 50 mM Tris-HCl pH 7.4 (pH 7.5), 5 mM MgCl2, 30 °C, apparent
Excerpt: (§1) HPLC-MS/MS of sterol glucoside formation, Michaelis-Menten fit on MrSGT

[2] = substrate: C=C(CC[C@@H](C)[C@H]1CC[C@H]2C3=CC[C@H]4[C@H](C)[C@@H](O)CC[C@]4(C)[C@H]3CC[C@]12C)C(C)C; assay: as above; type: biochemical, Micromonospora echinospora; settings: glycosyl acceptor, 0.8 mM UDP-Glc, 50 mM Tris-HCl pH 7.4 (pH 7.5), 5 mM MgCl2, 30 °C, apparent
Excerpt: as §1

[3] = substrate: CC(C)[C@H](C)CC[C@@H](C)[C@H]1CC[C@H]2[C@@H]3CC=C4C[C@@H](O)CC[C@]4(C)[C@H]3CC[C@]12C; assay: as above; type: biochemical, Micromonospora echinospora; settings: glycosyl acceptor, 0.8 mM UDP-Glc, 50 mM Tris-HCl pH 7.4 (pH 7.5), 5 mM MgCl2, 30 °C, apparent
Excerpt: as §1

[4] = substrate: O=c1ccn([C@@H]2O[C@H](CO[P@@](=O)(O)O[P@@](=O)(O)O[C@H]3O[C@H](CO)[C@@H](O)[C@H](O)[C@H]3O)[C@@H](O)[C@H]2O)c(=O)[nH]1; assay: as above; type: biochemical, Micromonospora echinospora; settings: glycosyl donor, 0.6 mM β-sitosterol as acceptor, 50 mM Tris-HCl pH 7.4 (pH 7.5), 5 mM MgCl2, 30 °C, apparent
Excerpt: as §1

[5] = substrate: [H][C@@]12CC=C3C[C@@H](O)CC[C@]3(C)[C@@]1([H])CC[C@@]1(C)[C@@]2([H])CC[C@]1([H])[C@H](C)CC[C@@H](CC)C(C)C; assay: as above; type: biochemical, Micromonospora echinospora; settings: glycosyl acceptor, 0.8 mM UDP-Glc, 50 mM Tris-HCl pH 7.4 (pH 7.5), 5 mM MgCl2, 30 °C, apparent
Excerpt: as §1

B1: MrSGT (Micromonospora echinospora) (protein)
chain: MRILIATAGSRGDVAPYTGLGAALRRAGYDVAVATTDTFARMVRDAGLGFRRLPADTRGHAGVRSNREVVRAAGVHRGTGPGLRRRAVSEGTDLLLLSTTTAPLGWLIGEATGIRSLGVYLQPTAPTADFPPVVTGARSLGRLGNRTAGRLALRMADRIYAEAVAGLRERLCLPPLSAAAMRARQERAGWPVLHGFGTALVPRPADWRPGLEVVGPWWPHHDAGERLPSELEDFLDAGPRPVLVGFGSMAAGDGERLSELAVRALRRAGLRGILQSGNACLAAEGDDVLTVGDVPHALLFPRLAAVVHHGGAGTRRDPAGGRPLGGGPGDRRPEPFWAGRLARIGAAPAPVPFTTLTADGLAGALGRVVGDEAYARAAEKAARHLAAEDGAARV
notes: recombinant His-tagged protein expressed in E. coli BL21(DE3), purified; ORF from fosmid library
With B1 the Km (purified protein) was 450 ± 50 µM, the kcat (purified protein) was 0.132 ± 0.0185 s⁻¹ and the kcat/Km (purified protein) was 292 M⁻¹ s⁻¹. For the same protein, the Km [1] was 130 ± 20 µM, the kcat [1] was 0.122 ± 0.0273 s⁻¹ and the kcat/Km [1] was 940 M⁻¹ s⁻¹. For the same protein, the Km [2] was 510 ± 60 µM, the kcat [2] was 0.13 ± 0.017 s⁻¹ and the kcat/Km [2] was 257 M⁻¹ s⁻¹. For the same protein, the Km [3] was 280 ± 30 µM, the kcat [3] was 0.128 ± 0.0165 s⁻¹ and the kcat/Km [3] was 457 M⁻¹ s⁻¹. The Km [4] was 280 ± 30 µM, the kcat [4] was 0.122 ± 0.0172 s⁻¹ and the Km [5] was 90 ± 10 µM. It also gave a kcat [5] of 0.122 ± 0.0172 s⁻¹ and a kcat/Km [5] of 1350 M⁻¹ s⁻¹.
